{"source": "patent US20050059803A1", "about": "(ARIAD GENE THERAPEUTICS, published 2005)", "binders": {"B1": {"name": "human RAPT1 rapamycin-binding domain fused to the VP16 activation domain (other)", "chain": "VSEELIRVAILWHEMWHEGLEEASRLYFGERNVKGMFEVLEPLHAMMERGPQTLKETSFNQAYGRDLMEAQEWCRKYMKSGNVKDLTQAWDLYYHVFRRISKQLPQLTSLELQYVSPKLLMCRDLELAVPGTYDPNQPIIRIQSIAPSLQVITSKQRPRKLTLMGSNGHEFVF"}}, "target": "LexA-FKBP12 fusion protein (human FKBP12, bait plasmid pIC504) (human, UniProt P62942 1-104)", "sequence (P62942 other isoform, or with tags, fused parts or gaps limits assumed)": "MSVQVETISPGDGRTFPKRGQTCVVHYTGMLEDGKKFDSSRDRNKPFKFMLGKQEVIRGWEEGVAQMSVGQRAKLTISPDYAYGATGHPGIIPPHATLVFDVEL", "assay": "cell-based or functional assay", "data": [{"binder": "B1", "values": [{"measurement": "β-galactosidase activity (lacZ reporter, chemiluminescent substrate)", "value": "~1000", "unit": "fold"}]}]}
